Results from patent publication US20210403579A1 (DELINIA, published 2021).
Numbering of substitutions follows the chain as printed.

T1: Mouse ST2 (mouse, UniProt P14719 27-332, limits assumed)
T1 construct: also called mouse ST2 protein
T1 sequence (looked up): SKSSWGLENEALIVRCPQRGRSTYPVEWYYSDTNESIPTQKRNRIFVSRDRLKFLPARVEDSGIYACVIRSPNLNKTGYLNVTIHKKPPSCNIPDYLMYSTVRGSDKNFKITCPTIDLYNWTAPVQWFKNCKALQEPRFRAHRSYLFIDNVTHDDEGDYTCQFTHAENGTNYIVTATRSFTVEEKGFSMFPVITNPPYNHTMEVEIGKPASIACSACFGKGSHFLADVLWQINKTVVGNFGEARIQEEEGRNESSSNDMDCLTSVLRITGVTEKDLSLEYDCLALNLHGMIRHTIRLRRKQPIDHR

T2: Human ST2 (human, UniProt Q01638 19-328, limits assumed)
T2 construct: also called human ST2 protein; Interleukin 1 receptor-like 1
T2 sequence (looked up): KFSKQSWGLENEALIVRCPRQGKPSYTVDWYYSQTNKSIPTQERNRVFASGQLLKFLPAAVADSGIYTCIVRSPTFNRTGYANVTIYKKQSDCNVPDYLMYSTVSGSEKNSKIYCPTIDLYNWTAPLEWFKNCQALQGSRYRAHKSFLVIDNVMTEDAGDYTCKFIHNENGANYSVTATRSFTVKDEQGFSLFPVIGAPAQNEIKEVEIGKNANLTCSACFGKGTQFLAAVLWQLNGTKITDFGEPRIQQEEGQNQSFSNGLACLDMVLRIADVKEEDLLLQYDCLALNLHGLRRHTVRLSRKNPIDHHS

B1: Human ST2 IgG1 Antibody 104 (antibody, V domains shown)
VH: QVQLVQSGAEVKKPGSSVKVSCKASGYTFTNYAIIWVRQAPGQGLEWMGGIIPVFGTADYTQTFQGRVTITADESTSTAYMELSSLRSEDTAVYYCARVSTNYYDSSGYYAFDYWGQGTLVTVSS
VL: DIQMTQSPSSLSASVGDRVTITCRASQSISSYLNWYQQKPGKAPKLLIYDASSLQSGVPSRFSGSGSGTDFTLTISSLQPEDFATYYCQQTYHTPWTFGQGTKVEIKR
notes: IgG1, kappa
B2: Human ST2 IgG1 Antibody 108 (antibody, V domains shown)
VH: QVQLVQSGAEVKKPGASVKVSCKASGNTFTAYYMHWVRQAPGQGLEWMGIINPSGGSTSYAQKFQGRVTMTRDTSTSTVYMELSSLRSEDTAVYYCARGVGATNYWGQGTLVTVSS
VL: B1 VL with S28G, S31N, Y32N, D50A, T91G, Y92F, H93N, T94F, W96L, Q100G
notes: IgG1, kappa; also called ST2 Antibody 108
B3: Human ST2 IgG1 Antibody 105 (antibody, V domains shown)
VH: EVQLLESGGGLVQPGGSLRLSCAASGFTFSSYAMHWVRQAPGKGLEWVAVMSYDGRHEYYADSVKGRFTISRDNSKNTLYLQMNSLRAEDTAVYYCASTDYDIGGYSLPLDYWGQGTLVTVSS
VL: B1 VL with I29V, Y32W, N34A, D50A, S53N, T91S, H93D, T94V, K103R, V104L
notes: IgG1, kappa
B4: Human ST2 IgG1 Antibody 103 (antibody, V domains shown)
VH: QVQLVQSGAEVKKPGASVKVSCKASGYTFTSYYMHWVRQAPGQGLEWMGWMNPNSGNTGYAQKFQGRVTMTRDTSTSTVYMELSSLRSEDTAVYYCARETSFDYYYGMDVWGQGTTVTVSS
VL: DIQMTQSPSSLSASVGDRVTITCRASQSISNWLAWYQQKPGKAPKLLIYDGSNLGTGVPSRFSGSGSGTDFTLTISSLQPEDFATYYCLQDFTYPLTFGGGTKVEIKR
notes: IgG1, kappa; also called ST2 Antibody 103
B5: Human ST2 IgG1 Antibody 109 (antibody, V domains shown)
VH: QVQLVQSGAEVKKPGSSVKVSCKASGYRFTDYYIHWVRQAPGQGLEWMGIIQPTGGGTTYAQKFQGRVTITADESTSTAYMELSSLRSEDTAVYYCARVGATVTKNYYYYYGMDVWGQGTTVTVSS
VL: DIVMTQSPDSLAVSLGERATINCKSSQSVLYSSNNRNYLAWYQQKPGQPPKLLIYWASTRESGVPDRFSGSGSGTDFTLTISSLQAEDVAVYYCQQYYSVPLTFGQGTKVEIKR
notes: IgG1, kappa

Tests used:
Mouse ST2 = molecular target: T1, Mouse ST2; experiment: SPR (Carterra), antibody immobilized, ST2 analyte, 1:1
Procedure: (§1) Binding of the reformatted human ST2 antibodies to the human and mouse ST2 proteins was evaluated by surface plasmon resonance (SPR), using a high throughput antibody screening and characterization platform from Carterra (Salt Lake City, Utah).

Human ST2 = molecular target: T2, Human ST2; experiment: as above
Procedure: as §1

Binder	Kd (Mouse ST2)	koff (Mouse ST2)	kon (Mouse ST2)	Kd (Human ST2)	koff (Human ST2)	kon (Human ST2)
B1	684 nM	0.096 s⁻¹	140000 M⁻¹ s⁻¹	121 nM	0.061 s⁻¹	510000 M⁻¹ s⁻¹
B2	–	–	–	28 nM	0.0056 s⁻¹	200000 M⁻¹ s⁻¹
B3	172 nM	0.07 s⁻¹	410000 M⁻¹ s⁻¹	256 nM	0.095 s⁻¹	370000 M⁻¹ s⁻¹
B4	211 nM	0.0058 s⁻¹	27000 M⁻¹ s⁻¹	140 nM	0.0063 s⁻¹	45000 M⁻¹ s⁻¹
B5	1.1 nM	0.0013 s⁻¹	1.1e+06 M⁻¹ s⁻¹	10 nM	0.0061 s⁻¹	600000 M⁻¹ s⁻¹
